Laboratory results as given in PMC5681266.

Key:
[1] = biological target: chemokine (C-X-C) motif receptor (CXCR) 4 (human (endogenous in hPPAEC)) (UniProt P61073)
[2] = biological target: atypical chemokine receptor 3 (human (endogenous in hPPAEC)) (UniProt P25106)
Chain of UniProt P25106 (P25106 whole entry): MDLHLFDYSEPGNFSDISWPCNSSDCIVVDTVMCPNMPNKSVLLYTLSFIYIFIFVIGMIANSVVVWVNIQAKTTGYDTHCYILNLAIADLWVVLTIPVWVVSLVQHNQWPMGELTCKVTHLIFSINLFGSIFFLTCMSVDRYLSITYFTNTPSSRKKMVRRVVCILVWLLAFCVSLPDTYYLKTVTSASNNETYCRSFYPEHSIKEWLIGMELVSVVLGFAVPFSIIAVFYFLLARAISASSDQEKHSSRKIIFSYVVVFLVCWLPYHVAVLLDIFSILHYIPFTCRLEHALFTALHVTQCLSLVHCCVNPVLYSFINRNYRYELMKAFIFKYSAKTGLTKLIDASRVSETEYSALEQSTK

Chain of UniProt P61073 (P61073 whole entry): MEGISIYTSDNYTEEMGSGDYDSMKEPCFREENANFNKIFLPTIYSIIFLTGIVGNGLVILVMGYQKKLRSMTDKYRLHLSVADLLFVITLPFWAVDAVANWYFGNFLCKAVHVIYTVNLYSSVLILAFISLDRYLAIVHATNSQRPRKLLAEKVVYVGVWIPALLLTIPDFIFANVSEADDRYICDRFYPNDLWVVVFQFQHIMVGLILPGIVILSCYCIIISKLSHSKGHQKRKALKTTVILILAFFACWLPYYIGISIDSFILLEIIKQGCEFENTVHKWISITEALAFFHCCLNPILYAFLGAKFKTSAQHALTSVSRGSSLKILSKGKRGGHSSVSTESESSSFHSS

Row | Substance | EC50 of β-arrestin 2 recruitment to CXCR4, Presto-Tango (Tango plasmid in HTLA cells) [1] [nM] | efficacy (top plateau) of β-arrestin 2 recruitment to CXCR4, Presto-Tango, % of CXCL12α [1] [%] | EC50 of β-arrestin 2 recruitment to ACKR3, Presto-Tango (Tango plasmid in HTLA cells) [2] [nM] | efficacy (top plateau) of β-arrestin 2 recruitment to ACKR3, Presto-Tango, % of CXCL12α [2] [%]
1 | CXCL12 K27A/R41A/R47A (from UniProt P48061-2 22-89) (ligand) | 145 | 111 | 1.2 | 83
2 | CXCL12 R47E (from UniProt P48061-2 22-89) (ligand) | 127 | 105 | 0.4 | 86
3 | CXCL12 S-S4V, a protease resistant mutant (from UniProt P48061-2 22-89) (ligand) | 75 | 117 | 0.7 | 88
4 | CXCL12_(1), engineered constitutively monomeric CXCL12 variant (from UniProt P48061-2 22-89) (ligand) | 27 | 103 | 5.6 | 98
5 | CXCL12_(2), disulfide-locked dimeric CXCL12 variant (from UniProt P48061-2 22-89) (ligand) | 2.4 | 90 | 8.8 | 87
6 | CXCL12β (from UniProt P48061 22-93) (ligand) | 1.4 | 73 | 1.5 | 103
7 | N-terminal truncated CXCL12 (3–68) (from UniProt P48061-2 24-89) (domain or fragment) | > 1000 | – | 13.3 | 19
